These results are taken from PMC3150801 (Nature, 2011).

The assay has as its target GST hLRH-1 ligand binding domain (amino acid residues, 185-541) (human, UniProt O00482 185-541). The assay can be described thus: pull-down.

Chain of GST hLRH-1 ligand binding domain (amino acid residues, 185-541) (O00482 185-541): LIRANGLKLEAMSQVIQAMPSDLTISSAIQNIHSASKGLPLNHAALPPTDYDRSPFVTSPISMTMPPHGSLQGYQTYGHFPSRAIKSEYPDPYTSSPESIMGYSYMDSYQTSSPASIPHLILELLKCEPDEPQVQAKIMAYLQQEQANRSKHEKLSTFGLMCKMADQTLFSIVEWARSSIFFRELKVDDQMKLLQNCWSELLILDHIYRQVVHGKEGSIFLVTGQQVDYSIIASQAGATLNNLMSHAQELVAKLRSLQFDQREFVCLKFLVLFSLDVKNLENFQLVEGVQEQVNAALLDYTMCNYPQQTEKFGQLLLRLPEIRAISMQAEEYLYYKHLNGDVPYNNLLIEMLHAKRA

B1: Full-length [35S]methionine-labeled SRC-3 (natural protein)
chain: not shown
modifications: [35S]methionine label
Consider B1, for which the “fold increase of binding with DLPC or DUPC over basal” value is around 3 fold.
